Patent publication US20250136687A1
Where “and” joins values, the source holds several entries; their conditions need not be identical. Equal values may be shown once. Read-outs that look alike come from different tables or passages of the source. Values belong to the substance of their own block, whether it stands above or below them.

What was measured:
[1] = target: human CD3 on the cell surface (Jurkat cells, expanded human T cells, Jurkat-Lucia NFAT cells, human PBMC) (human) (UniProt P07766); test: FACS, Jurkat cells
[2] = target: human CD3 on the cell surface (Jurkat cells, expanded human T cells, Jurkat-Lucia NFAT cells, human PBMC) (human) (UniProt P07766); test: FACS, Jurkat cells; remark: listed apart in the source
[3] = target: human CD3 on the cell surface (Jurkat cells, expanded human T cells, Jurkat-Lucia NFAT cells, human PBMC) (human) (UniProt P07766); test: FACS, Jurkat cells; remark: listed apart in the source
human CD3ε/δ-His (human) [4] = target: human CD3ε/δ-His (human) (UniProt P07766); test: ELISA, coated antigen
[5] = target: monkey CD3ε protein (monkey) (UniProt Q95LI5); test: ELISA, coated antigen
[6] = target: monkey CD3ε/δ-His (monkey) (UniProt Q95LI5); test: ELISA, coated antigen
[7] = target: recombinant human CD3ε-ECD His protein (human) (UniProt P07766); test: ELISA, coated antigen
[8] = target: recombinant human CD3ε-ECD His protein (human) (UniProt P07766); test: ELISA, coated antigen; remark: listed apart in the source
[9] = target: human CD3 on the cell surface (Jurkat cells, expanded human T cells, Jurkat-Lucia NFAT cells, human PBMC) (human) (UniProt P07766); test: cell-based or functional assay
[10] = target: human CD3 on the cell surface (Jurkat cells, expanded human T cells, Jurkat-Lucia NFAT cells, human PBMC) (human) (UniProt P07766); test: cell-based or functional assay; remark: listed apart in the source
[11] = target: human CD3 on the cell surface (Jurkat cells, expanded human T cells, Jurkat-Lucia NFAT cells, human PBMC) (human) (UniProt P07766); test: cell-based or functional assay; remark: listed apart in the source
[12] = target: human CD3 on the cell surface (Jurkat cells, expanded human T cells, Jurkat-Lucia NFAT cells, human PBMC) (human) (UniProt P07766); test: cell-based or functional assay; remark: listed apart in the source
[13] = target: human CD3 on the cell surface (Jurkat cells, expanded human T cells, Jurkat-Lucia NFAT cells, human PBMC) (human) (UniProt P07766); test: FACS, expanded human T cells
[14] = target: human CD3 on the cell surface (Jurkat cells, expanded human T cells, Jurkat-Lucia NFAT cells, human PBMC) (human) (UniProt P07766); test: FACS, expanded human T cells; remark: listed apart in the source
[15] = target: human CD3 on the cell surface (Jurkat cells, expanded human T cells, Jurkat-Lucia NFAT cells, human PBMC) (human) (UniProt P07766); test: FACS, expanded human T cells; remark: listed apart in the source
[16] = target: human CD3 on the cell surface (Jurkat cells, expanded human T cells, Jurkat-Lucia NFAT cells, human PBMC) (human) (UniProt P07766); test: FACS, expanded human T cells; remark: listed apart in the source
[17] = target: cynomolgus monkey CD3 on the surface of expanded monkey T cells (cynomolgus monkey) (UniProt Q95LI5); test: FACS, expanded monkey T cells
[18] = target: cynomolgus monkey CD3 on the surface of expanded monkey T cells (cynomolgus monkey) (UniProt Q95LI5); test: FACS, expanded monkey T cells; remark: listed apart in the source
[19] = target: cynomolgus monkey CD3 on the surface of expanded monkey T cells (cynomolgus monkey) (UniProt Q95LI5); test: FACS, expanded monkey T cells; remark: listed apart in the source
[20] = target: cynomolgus monkey CD3 on the surface of expanded monkey T cells (cynomolgus monkey) (UniProt Q95LI5); test: FACS, expanded monkey T cells, 4 nM antibody
[21] = target: cynomolgus monkey CD3 on the surface of expanded monkey T cells (cynomolgus monkey) (UniProt Q95LI5); test: FACS, expanded monkey T cells, 20 nM antibody
[22] = target: cynomolgus monkey CD3 on the surface of expanded monkey T cells (cynomolgus monkey) (UniProt Q95LI5); test: FACS, expanded monkey T cells, 100 nM antibody
human CD3ε/δ-His (human) [23] = target: human CD3ε/δ-His (human) (UniProt P07766); test: ELISA, coated antigen, hybridoma screening
[24] = target: monkey CD3ε/δ-His (monkey) (UniProt Q95LI5); test: ELISA, coated antigen, hybridoma screening

human CD3 on the cell surface (Jurkat cells, expanded human T cells, Jurkat-Lucia NFAT cells, human PBMC) (human), sequence (P07766 23-207, chain 1 of 3): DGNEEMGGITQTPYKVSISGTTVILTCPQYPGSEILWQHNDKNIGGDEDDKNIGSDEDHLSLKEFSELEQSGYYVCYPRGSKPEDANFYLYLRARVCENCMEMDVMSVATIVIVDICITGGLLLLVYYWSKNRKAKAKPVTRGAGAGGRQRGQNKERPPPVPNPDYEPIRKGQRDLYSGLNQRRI
human CD3 on the cell surface (Jurkat cells, expanded human T cells, Jurkat-Lucia NFAT cells, human PBMC) (human), sequence (P04234 22-171, chain 2 of 3, further chain): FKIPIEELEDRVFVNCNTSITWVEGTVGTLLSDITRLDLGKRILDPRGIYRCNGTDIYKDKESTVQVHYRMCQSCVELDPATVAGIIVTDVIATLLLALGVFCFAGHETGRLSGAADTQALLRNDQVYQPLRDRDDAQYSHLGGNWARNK
human CD3 on the cell surface (Jurkat cells, expanded human T cells, Jurkat-Lucia NFAT cells, human PBMC) (human), sequence (P09693 23-182, chain 3 of 3, further chain): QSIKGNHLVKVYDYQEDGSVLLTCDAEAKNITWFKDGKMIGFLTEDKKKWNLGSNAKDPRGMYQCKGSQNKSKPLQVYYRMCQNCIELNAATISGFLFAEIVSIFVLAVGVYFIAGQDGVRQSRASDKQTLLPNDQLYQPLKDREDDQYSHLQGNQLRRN
cynomolgus monkey CD3 on the surface of expanded monkey T cells (cynomolgus monkey), sequence (Q95LI5 22-198, chain 1 of 3): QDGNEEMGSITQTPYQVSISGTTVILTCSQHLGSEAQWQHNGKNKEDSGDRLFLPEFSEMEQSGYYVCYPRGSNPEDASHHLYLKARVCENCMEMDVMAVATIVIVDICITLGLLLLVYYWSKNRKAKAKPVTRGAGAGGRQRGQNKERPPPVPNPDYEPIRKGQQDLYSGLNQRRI
cynomolgus monkey CD3 on the surface of expanded monkey T cells (cynomolgus monkey), sequence (Q95LI8 22-171, chain 2 of 3, further chain): as the sequence (P04234 22-171, chain 2 of 3, further chain) above, with I5V, N15K, I20V, S32T, D33N, I34N, T64A, S74N, V83L, H141R counted along it
cynomolgus monkey CD3 on the surface of expanded monkey T cells (cynomolgus monkey), sequence (Q95LI7 23-181, chain 3 of 3, further chain): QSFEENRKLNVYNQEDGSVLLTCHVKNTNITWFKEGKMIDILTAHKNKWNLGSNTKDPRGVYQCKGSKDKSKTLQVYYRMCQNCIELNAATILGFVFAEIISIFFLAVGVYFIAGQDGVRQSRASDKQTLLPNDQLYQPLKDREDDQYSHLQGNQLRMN
human CD3ε/δ-His (human), sequence (P07766 23-126, stated change not applied, form in doubt, chain 1 of 2): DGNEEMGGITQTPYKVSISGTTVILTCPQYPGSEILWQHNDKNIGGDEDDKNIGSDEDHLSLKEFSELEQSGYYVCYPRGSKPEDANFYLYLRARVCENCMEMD
human CD3ε/δ-His (human), sequence (P04234 22-105, stated change not applied, form in doubt, chain 2 of 2, further chain): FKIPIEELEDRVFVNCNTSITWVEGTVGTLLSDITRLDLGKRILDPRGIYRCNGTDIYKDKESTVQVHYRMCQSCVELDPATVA
monkey CD3ε/δ-His (monkey), sequence (Q95LI5 22-117, stated change not applied, form in doubt, chain 1 of 2): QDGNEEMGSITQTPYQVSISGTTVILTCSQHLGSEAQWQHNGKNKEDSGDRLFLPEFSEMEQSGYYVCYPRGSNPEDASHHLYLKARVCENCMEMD
monkey CD3ε/δ-His (monkey), sequence (Q95LI8 22-105, stated change not applied, form in doubt, chain 2 of 2, further chain): as the sequence (P04234 22-105, stated change not applied, form in doubt, chain 2 of 2, further chain) above, with I5V, N15K, I20V, S32T, D33N, I34N, T64A, S74N, V83L counted along it
recombinant human CD3ε-ECD His protein (human), sequence (P07766 23-126): as the sequence (P07766 23-126, stated change not applied, form in doubt, chain 1 of 2) above
monkey CD3ε protein (monkey), sequence (Q95LI5 22-117 limits assumed): as the sequence (Q95LI5 22-117, stated change not applied, form in doubt, chain 1 of 2) above

MFI Max [1]: 151 MFI
MFI Max [2]: 490 MFI
Maximum fluorescence value Alexa 647 [2]: 108 MFI
MFI Max [3]: 182 MFI
max-OD450 (human CD3ε/δ-His (human) [4]): 0.09 OD450
max-OD450 [5]: 0.16 OD450
max-OD450 [6]: 0.15 OD450
max-OD450 [7]: 0.11 OD450
max-OD450 [8]: 0.09 OD450
Maximum response value (RLU) [9]: 1830 RLU
Maximum response value (RLU) [10]: 2330 RLU
Maximum response value (RLU) [11]: 4250 RLU
Maximum response value (RLU) [12]: 3780 RLU
EC50 [13]: 19.9 nM
MFI Max [13]: 823 MFI
Maximum fluorescence value Alexa 647 [13]: 480 MFI
max MFI [13]: 2250 MFI
MFI Max [14]: 148 MFI
MFI Max [15]: 195 MFI
MFI Max [16]: 124 MFI
MFI Max [17]: 87 MFI
Maximum fluorescence value Alexa 647 [17]: 299 MFI
max MFI [17]: 74 MFI
MFI Max [18]: 1570 MFI
MFI Max [19]: 195 MFI
MFI at antibody concentration 4 nM [20]: 64 MFI
MFI at antibody concentration 20 nM [21]: 80 MFI
MFI at antibody concentration 100 nM [22]: 170 MFI
Substance: anti-hel-hIgG1 (negative control antibody against Hen Egg Lysozyme)

OD450 (human CD3ε/δ-His (human) [23]): 0.05 OD450 and 0.04 OD450
OD450 [24]: 0.07 OD450 and 0.04 OD450 and 0.05 OD450
Substance: anti-hel-mIgG1 (negative control antibody against Hen Egg Lysozyme)
